The results in this text go back to patent US6432645B1, “Beta subunits of Slo family potassium channels” (ICAgen Inc., priority 1999, dated 2002).

Test [1] deals with T1, Slo-1 (Homo sapiens, UniProt Q12791). In words: cell-based or functional assay.
Test [2] deals with T1, Slo-1. Description: Whole-cell voltage-clamp of membrane currents in HEK293 cells expressing Slo-1 alone. In kind it is cell-based. Also noted: expressed in transfected cells; host or cells: HEK293. Conditions: Slo-1 alone in HEK293 cells, 250 ms depolarizing steps from holding potential -80 mV; for inhibition (block) of membrane currents: CTX 100 nM. Here is the method: (§1) FIGS. 6A-B. Slo-1/BKB3 forms BK type II-like charybdotoxin—(CTX) insensitive channels. Slo-1 (A) or Slo-1+BK beta 3 (B) were expressed in HEK293 cells and membrane currents measured using the whole-cell voltage-clamp technique. […]. In contrast, membrane currents in cells co-expressing Slo-1 and BK beta 3 were TEA (5 mM) sensitive but CTX (100 nM) insensitive (FIG. 6B). Similar recordings were made from 4 cells expressing Slo-1 alone and 6 cells co-expressing Slo-1/BKB3. Scale bars represent 1 nA and 200 ms.

The target of another test is T2, Slo-1/BKB3 (Homo sapiens, UniProt Q12791).
T2 construct: expressed in transfected cells; host or cells: HEK293
Description: Whole-cell voltage-clamp of membrane currents in HEK293 cells co-expressing Slo-1 and BK beta 3. In kind it is cell-based. Conditions: Slo-1 + BK beta 3 in HEK293 cells, 250 ms depolarizing steps from holding potential -80 mV; for sensitivity (block) of membrane currents: CTX 100 nM. Here is the method: as §1

T2 sequence (Q12791 whole entry): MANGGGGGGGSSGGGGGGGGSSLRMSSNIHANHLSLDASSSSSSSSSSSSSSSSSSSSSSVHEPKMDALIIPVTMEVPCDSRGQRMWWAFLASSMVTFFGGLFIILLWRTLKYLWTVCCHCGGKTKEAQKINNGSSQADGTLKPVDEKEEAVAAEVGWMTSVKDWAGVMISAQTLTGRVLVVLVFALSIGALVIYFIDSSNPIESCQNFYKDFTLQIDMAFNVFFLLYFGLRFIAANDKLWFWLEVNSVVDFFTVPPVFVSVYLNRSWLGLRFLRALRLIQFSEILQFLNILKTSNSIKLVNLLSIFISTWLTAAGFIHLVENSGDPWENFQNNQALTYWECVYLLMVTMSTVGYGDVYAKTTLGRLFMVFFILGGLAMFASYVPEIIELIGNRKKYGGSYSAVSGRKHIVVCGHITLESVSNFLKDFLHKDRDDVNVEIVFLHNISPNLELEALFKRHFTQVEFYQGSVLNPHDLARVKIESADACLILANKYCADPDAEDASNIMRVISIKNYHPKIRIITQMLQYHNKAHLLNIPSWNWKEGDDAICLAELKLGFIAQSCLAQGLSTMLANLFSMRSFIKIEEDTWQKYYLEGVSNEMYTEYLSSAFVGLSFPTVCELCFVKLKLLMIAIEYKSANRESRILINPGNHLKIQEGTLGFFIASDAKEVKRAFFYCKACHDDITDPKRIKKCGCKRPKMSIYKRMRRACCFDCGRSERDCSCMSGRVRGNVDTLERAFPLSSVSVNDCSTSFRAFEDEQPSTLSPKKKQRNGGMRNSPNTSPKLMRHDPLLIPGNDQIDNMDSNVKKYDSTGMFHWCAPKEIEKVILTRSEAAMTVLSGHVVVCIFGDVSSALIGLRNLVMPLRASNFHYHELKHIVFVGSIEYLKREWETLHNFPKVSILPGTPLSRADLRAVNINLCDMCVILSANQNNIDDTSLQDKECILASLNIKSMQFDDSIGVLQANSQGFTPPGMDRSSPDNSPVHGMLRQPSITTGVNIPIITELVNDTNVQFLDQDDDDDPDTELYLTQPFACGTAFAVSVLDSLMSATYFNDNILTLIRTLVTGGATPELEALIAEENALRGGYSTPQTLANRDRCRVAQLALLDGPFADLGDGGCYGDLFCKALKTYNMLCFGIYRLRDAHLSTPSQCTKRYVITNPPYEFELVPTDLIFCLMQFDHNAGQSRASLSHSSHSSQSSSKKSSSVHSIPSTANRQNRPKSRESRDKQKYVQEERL
T2 sequence (Q86W47 whole entry W137E partner): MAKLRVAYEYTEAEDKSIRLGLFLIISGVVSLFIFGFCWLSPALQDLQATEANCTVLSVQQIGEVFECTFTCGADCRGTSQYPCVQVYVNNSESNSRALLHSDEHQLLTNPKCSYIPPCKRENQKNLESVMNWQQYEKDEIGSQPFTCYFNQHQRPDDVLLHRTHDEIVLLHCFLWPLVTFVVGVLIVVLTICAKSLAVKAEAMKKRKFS
T1 sequence (Q12791 whole entry): as the sequence (Q12791 whole entry) above

human BK beta 3: in the test with Slo-1 [1], the shift of the Slo-1 activation curve (V1/2 act), patch clamp, 50 uM free Ca2+ is 15 mV.
As to `CC[N+](CC)(CC)CC` [TEA], the “inhibition of membrane currents” value against Slo-1 [2] (TEA 5 mM) was “strongly inhibited”. The “sensitivity of membrane currents” value on Slo-1/BKB3 (TEA 5 mM) was “sensitive”.
Turning to charybdotoxin [CTX], the entries for the “inhibition (block) of membrane currents” value in the test with Slo-1 [2] and with Slo-1 [2] (listed as charybdotoxin) were “strongly inhibited” and “almost completely blocked”, respectively. For the same molecule, the “sensitivity (block) of membrane currents” value is on record as “insensitive” with Slo-1/BKB3 and “virtually unblocked” with Slo-1/BKB3 (listed as charybdotoxin).
